According to IntAct's records for PubMed 22609948:

B1: Segment polarity protein dishevelled homolog DVL-2 (Mus musculus), Q60838 (parent)
chain: MAGSSAGGGGVGETKVIYHLDEEETPYLVKIPVPAERITLGDFKSVLQRPAGAKYFFKSMDQDFGVVKEEISDDNARLPCFNGRVVSWLVSSDTPQPEVAPPAHESRTELVPPPPPLPPLPPERTSGIGDSRPPSFHPNVSSSHENLEPETETESVVSLRRDRPRRRDSSEHGAGGHRPGGPSRLERHLAGYESSSTLMTSELESTSLGDSDEDDTMSRFSSSTEQSSASRLLKRHRRRRKQRPPRMERTSSFSSVTDSTMSLNIITVTLNMEKYNFLGISIVGQSNERGDGGIYIGSIMKGGAVAADGRIEPGDMLLQVNDMNFENMSNDDAVRVLRDIVHKPGPIVLTVAKCWDPSPQAYFTLPRNEPIQPIDPAAWVSHSAALTGAFPAYPGSSSMSTITSGSSLPDGCEGRGLSVHMDMASVTKAMAAPESGLEVRDRMWLKITIPNAFLGSDVVDWLYHHVEGFPERREARKYASGLLKAGLIRHTVNKITFSEQCYYVFGDLSGGCESYLVNLSLNDNDGSSGASDQDTLAPLPGATPWPLLPTFSYQYPAPHPYSPQPPPYHELSSYTYGGGSASSQHSEGSRSSGSTRSDGGAGRTGRPEERAPESKSGSGSESELSSRGGSLRRGGEPGGTGDGGPPPSRGSTGAPPNLRALPGLHPYGAPSGMALPYNPMMVVMMPPPPPPVSTAVQPPGAPPVRDLGSVPPELTASRQSFHMAMGNPSEFFVDVM

Variants of: B1
Conditions: with plk1_human PLK1, P53350
Sequence of plk1_human PLK1, P53350 (P53350 whole entry): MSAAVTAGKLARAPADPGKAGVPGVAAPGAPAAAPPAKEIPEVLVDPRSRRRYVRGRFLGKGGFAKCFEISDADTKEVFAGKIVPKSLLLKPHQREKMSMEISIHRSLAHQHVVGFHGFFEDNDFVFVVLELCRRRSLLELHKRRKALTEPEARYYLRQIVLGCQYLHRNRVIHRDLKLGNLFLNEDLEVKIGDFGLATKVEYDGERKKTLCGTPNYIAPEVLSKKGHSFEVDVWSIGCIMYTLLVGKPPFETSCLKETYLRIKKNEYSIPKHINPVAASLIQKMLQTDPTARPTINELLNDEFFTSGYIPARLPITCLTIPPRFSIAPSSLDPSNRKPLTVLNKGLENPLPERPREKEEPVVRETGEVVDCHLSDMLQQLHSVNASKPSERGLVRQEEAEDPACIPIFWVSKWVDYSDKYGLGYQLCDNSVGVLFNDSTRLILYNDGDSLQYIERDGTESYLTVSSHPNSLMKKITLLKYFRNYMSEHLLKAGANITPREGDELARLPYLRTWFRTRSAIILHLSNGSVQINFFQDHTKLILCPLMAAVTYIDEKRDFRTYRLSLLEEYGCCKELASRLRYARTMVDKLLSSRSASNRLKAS

| Variant | effect of a mutation on the interaction |
| --- | --- |
| T224D | disrupting interaction |

Variants of: B1
Conditions: with plk1_human PLK1, P53350
Remark: another data set of the same source

| Variant | effect of a mutation on the interaction |
| --- | --- |
| T224E | decreasing interaction |

Variants of: B1
Conditions: with plk1_human PLK1, P53350
Remark: another data set of the same source

| Variant | effect of a mutation on the interaction |
| --- | --- |
| T224A | decreasing interaction |

Variants of: B1
Conditions: with plk1_human PLK1, P53350
Remark: another data set of the same source

| Variant | effect of a mutation on the interaction |
| --- | --- |
| S398A | decreasing interaction |

Variants of: B1
Conditions: with plk1_human PLK1, P53350
Remark: another data set of the same source

| Variant | effect of a mutation on the interaction |
| --- | --- |
| S143A | disrupting interaction |

Variants of: B1
Conditions: with plk1_human PLK1, P53350
Remark: another data set of the same source

| Variant | effect of a mutation on the interaction |
| --- | --- |
| S143D | disrupting interaction |
